Biological target: at2a2_mouse Atp2a2 (UniProt O55143)
Sequence (O55143 whole entry): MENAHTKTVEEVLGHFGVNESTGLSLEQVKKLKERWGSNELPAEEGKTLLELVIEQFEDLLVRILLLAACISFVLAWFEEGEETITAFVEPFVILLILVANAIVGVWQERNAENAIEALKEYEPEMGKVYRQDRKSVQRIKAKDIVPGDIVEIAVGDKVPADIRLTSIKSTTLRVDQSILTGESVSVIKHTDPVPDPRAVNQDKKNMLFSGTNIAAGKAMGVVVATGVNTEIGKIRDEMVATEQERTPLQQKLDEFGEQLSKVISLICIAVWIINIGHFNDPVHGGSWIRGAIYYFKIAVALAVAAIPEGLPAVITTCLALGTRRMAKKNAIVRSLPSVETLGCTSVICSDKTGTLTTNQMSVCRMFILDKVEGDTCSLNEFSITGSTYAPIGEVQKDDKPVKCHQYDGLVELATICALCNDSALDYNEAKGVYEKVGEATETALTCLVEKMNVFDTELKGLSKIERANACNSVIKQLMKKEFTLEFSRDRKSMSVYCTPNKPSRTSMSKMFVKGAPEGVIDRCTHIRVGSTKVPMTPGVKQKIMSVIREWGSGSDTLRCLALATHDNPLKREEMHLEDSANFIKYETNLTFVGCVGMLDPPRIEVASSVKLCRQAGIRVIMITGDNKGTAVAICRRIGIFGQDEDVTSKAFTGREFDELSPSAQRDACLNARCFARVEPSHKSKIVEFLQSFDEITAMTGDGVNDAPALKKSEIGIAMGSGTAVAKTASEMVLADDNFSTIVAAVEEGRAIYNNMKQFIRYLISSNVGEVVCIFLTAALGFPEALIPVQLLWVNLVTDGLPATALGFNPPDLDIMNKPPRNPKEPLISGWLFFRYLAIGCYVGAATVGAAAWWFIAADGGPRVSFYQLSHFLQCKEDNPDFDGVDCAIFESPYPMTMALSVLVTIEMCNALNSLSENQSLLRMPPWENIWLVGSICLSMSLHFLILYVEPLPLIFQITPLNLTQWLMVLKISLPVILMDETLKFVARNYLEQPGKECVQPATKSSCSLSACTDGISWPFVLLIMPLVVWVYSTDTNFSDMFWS

Leucine-rich repeat serine/threonine-protein kinase 2 (Homo sapiens), Q5S007 G2019S
effect of a mutation on the interaction: increasing interaction strength

From IntAct's records for PubMed 31046837
